Assay results: the nanobody polyreactivity screen of Harvey et al. (2022)

Assay: yeast display, Sf9 membrane polyspecificity reagent, FACS + sequencing; frameworks hold sequencing errors
Summary of the method: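 In a synthetic yeast display library (Saccharomyces cerevisiae BJ5465), nanobody expression was induced with galactose for 36–48 hours. FACS gates were set low and high (top ~1%) using anti-HA fluorescence for expression and streptavidin fluorescence for binding of the Sf9 membrane reagent. Each polyreactivity label is drawn from the gate of origin.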

| Sequence | polyreactivity (PSR sort gate) |
| --- | --- |
| QVQLVESGGGLVQAGGSLRLSCAASGSIFTYYTMGLYRQAPGKERELVADITGGGSSTYYADSVKGRFTISRDNAKNTVYLQMNSLKPEDTAVYYCAADKYWAQNDYWGQGTQVTVSS | low polyreactivity |
| QVQLVESGGGLVQAGGSLRLSCAASGSIFTYYTMGWYRQAPGKERELVAAIRWSAGRTYYADSVKGRFTISRDNAKNTVYLQMNSLKPEDTAVYYCAAAERLRHGLKFDYWGQGTQVTVSS | high polyreactivity |
| QVQLVESGGGLVQAGGSLRLSCAASGSIFVDYAMGWYRQAPGKERELVAAISWRGGSTYYADSVKGRFTISRDNAKNTVYLQMNSLKPEDTAVYYCAALTPFKYDYWGQGTKVTVSS | low polyreactivity |
| QVQLVESGGGLVQAGGSLRLSCAASGSIFVFYAMGWYRQAPGKERELVAAITRSGGRTYADSVKGRFTISRDNAKNTVYLQMYSLKPEDTAVYYCNAGTYWYNGRYTRSAHDYWGQGTQVTVSS | high polyreactivity |
| QVQLVESGGGLVQAGGSLRLSCAASGSIFVGHAMGWYRQAPGKERELVATISRSGGSTYYADSVKGRFTISRDNAKNTVYLQMNSLKPEDTAVYYCAKTPYRRYSYGGYTYRTYDYWGQGTQVTVSS | low polyreactivity |
| QVQLVESGGGLVQAGGSLRLSCAASGSIFVGNAMGWDRQAPGKERELVATLSWSGGSTYYADSVKGRFTISRDNAKNTVDLQMNSLNPEDTAVYYCAKTPYRRYRYGGYTYRTYDYWGQGTQVTVSS | low polyreactivity |
| QVQLVESGGGLVQAGGSLRLSCAASGSIFVGNAMGWSRQAPGKERELVATISRGARRKYADSVKGRFTISRDNAKNTVYLQMNSLIPEDTAVYYCNKVTSYYVFYTPYYSWGQGTQVTVSS | low polyreactivity |
| QVQLVESGGGLVQAGGSLRLSCAASGSIFVGYAMGWYRQAPGKERDLVAAIDSTVSTYYADSVKGRFTISRDNAKNTVYLQMNSLKPEDTAVYYCAAYPRPDIGYTDGYVWYEFDYWGQGTQVTVSS | low polyreactivity |
| QVQLVESGGGLVQAGGSLRLSCAASGSIFVGYAMGWYRQAPGKERELVAAISTRGGSTYYADSVKGRFTISRDNAKNTVYLQMNSLKPEDTAVYDCAADYLDSTYGYVYGWDDYWGQGTQVTVSS | low polyreactivity |
| QVQLVESGGGLVQAGGSLRLSCAASGSIFVGYAMGWYRQAPGKERELVASITTRGGSTHYADSVKGRFTISRDNAKNTVYLQMNSLKPEDTAVYYCAADSLSNGVLQYLPGYDYWGQGTQVTVSS | low polyreactivity |
| QVQLVESGGGLVQAGGSLRLSCAASGSIFVGYTMGWYRQAPGKERELVAAITSTGGSTSYADSVKGRFTISRDNAKNTVYLQMNSLKPEDTAVYYCAARGRGKTTSVAYYYWGQGTQVTVSS | high polyreactivity |
| QVQLVESGGGLVQAGGSLRLSCAASGSIFVGYTMGWYRQAPGKERELVADITYNGGTTYYADSVKGRFTISRDNAKNTVYLQMNSLKPEDSAVYYCAADYYYGWFPVYYWGQGTQVTVSS | high polyreactivity |
| QVQLVESGGGLVQAGGSLRLSCAASGSIFVGYVMGWYRQAPGKERELVAAISKSGSRTYYADSVKGRFTISRDNAKYTVYLQMNSLKPEDTAVYYCATAGYDADDYWGQGTQVTVSS | high polyreactivity |
| QVQLVESGGGLVQAGGSLRLSCAASGSIFVHNTMGWYRQAPGKERELVAAITRSVGRTYYADSVKGRFTISRDNAKNTVYLQMNSLKPEDTAVYYCAARKNYGSRLSYEYWGQGTQVTVSS | high polyreactivity |
| QVQLVESGGGLVQAGGSLRLSCAASGSIFVHYAMGWYRQAPGKERELVASISTSGGRTRYADSVKGRFTISRDNAKNTVYLQMNSLKPEDTAVYYCAALRWGRRYDYWGQGTQVTVSS | high polyreactivity |
| QVQLVESGGGLVQAGGSLRLSCAASGSIFVIYAMGWYRQAPGKERELVAAISRSGGRTYYADSVKGRFTISRDNAKNTVYLQMNSLKPEDTAVYYCAAEGSTYQGAPGVYYWGQGTQVTVSS | high polyreactivity |
| QVQLVESGGGLVQAGGSLRLSCAASGSIFVIYAMGWYRQAPGKERELVAAITWNGGSTFYADSVKGRFTISRDNAKNTVYLQMNSLKPEDTAVYYCNAVAVSNSGWEYDYWGQGTQVTVSS | low polyreactivity |
| QVQLVESGGGLVQAGGSLRLSCAASGSIFVIYAMGWYRQAPGKERELVAAITWNGGSTVYADSVKGRFTISRDNAKNTVYLQMNSLKPEDTAVYSCNAVAVSNSGWEYDYWGQGTQVTVSS | low polyreactivity |
| QVQLVESGGGLVQAGGSLRLSCAASGSIFVIYTMGWYRQAPGKERELVAVITWSTGNTYYADSVKGRFTISRDNAKNTVYLQMNSLKPEDTAVYYCAARTTSRWRSGAYYYWGQGTQVTVSS | high polyreactivity |
| QVQLVESGGGLVQAGGSLRLSCAASGSIFVKNVMGWYRQAPGKERELVAAITRGGRTYYADSVKGRFTISRDNAKNTVYLQMNSLKPEDTAVYYCNAYRLSYTYGYWGQGTQVTVSS | high polyreactivity |
| QVQLVESGGGLVQAGGSLRLSCAASGSIFVKYAMGWYRQAPGKERELVAAISRSGTRTYYADSVKGRFTISRDNAKNTVYLQMNSLKPEDTAVYYCAAAATTVRAYEYWGQGTQVTLSS | high polyreactivity |
